Data as given in patent US20080176756A1.

Target: Cyclosporine 29-56-14 combinatorial mutant clone R2-9 (scFv on yeast)
Assay: competition, flow cytometry on yeast; M17 0 to 5 uM against 0.5 nM bt-CsA; physiological or selection diluent

cyclosporine A metabolite M17 (peptide)
fold increase of IC50 compared to WT CsA 29-56-14: 30 to 100 fold
